What was measured:
[1] = target: T1, HER3 L268A: CD33-[Human HER3, residues 20-640, L268A]-TAG (human, UniProt P21860 20-640); experiment: SET
T1 construct: also called HER3 L268A-Tag; human mutant HER3 (L268A); not shown: C-terminal TAG (e.g., FLAG TAG)

[2] = target: T2, HER3 K267A/L268A: CD33-[Human HER3, residues 20-640, K267A/L268A]-TAG (human, UniProt P21860 20-640); experiment: SET
T2 construct: not shown: C-terminal TAG (e.g., FLAG TAG)

[3] = target: T3, Hu HER3: CD33-[Human HER3, residues 20-640]-TAG (human, UniProt P21860 20-640); experiment: SET, IgG vs HER3 ECD
T3 construct: also called hu HER3-Tag; HER3-Tag; not shown: C-terminal TAG (e.g., FLAG TAG)
T3 sequence (P21860 20-640): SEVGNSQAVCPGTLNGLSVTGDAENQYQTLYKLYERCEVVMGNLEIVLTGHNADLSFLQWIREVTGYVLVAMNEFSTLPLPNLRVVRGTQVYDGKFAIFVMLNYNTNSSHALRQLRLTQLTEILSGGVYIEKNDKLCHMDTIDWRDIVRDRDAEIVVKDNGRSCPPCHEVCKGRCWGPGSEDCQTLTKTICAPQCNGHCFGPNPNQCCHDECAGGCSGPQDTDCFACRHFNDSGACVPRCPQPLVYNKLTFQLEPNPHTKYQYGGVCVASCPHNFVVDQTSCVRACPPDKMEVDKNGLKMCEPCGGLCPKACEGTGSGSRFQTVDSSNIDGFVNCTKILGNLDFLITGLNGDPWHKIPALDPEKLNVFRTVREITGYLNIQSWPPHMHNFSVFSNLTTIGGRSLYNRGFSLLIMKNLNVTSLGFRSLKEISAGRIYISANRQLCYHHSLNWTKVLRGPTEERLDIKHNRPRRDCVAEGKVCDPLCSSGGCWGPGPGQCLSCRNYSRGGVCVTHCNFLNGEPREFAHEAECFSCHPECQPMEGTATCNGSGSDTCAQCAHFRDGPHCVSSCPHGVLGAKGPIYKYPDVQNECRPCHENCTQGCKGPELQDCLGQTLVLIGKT
Experimental: Affinity determination in solution was essentially performed as previously described (Friguet et al., (1985) J Immunol Methods 77:305-19). In order to improve the sensitivity and accuracy of the SET method, it was transferred from classical ELISA to ECL based technology (Haenel et al., (2005) Anal Biochem 339:182-84).
The data was evaluated with XLfit software (ID Business Solutions) applying customized fitting models.
Antibody affinity was determined by solution equilibrium titration (SET) as described above. The results are summarized in Table 3 and example titration curves for MOR12616 and MOR12925 are contained in FIG. 1.

[4] = target: T4, Human HER3, endogenous, on human cancer cell lines (SK-Br-3, MCF7, BT-474) (human, UniProt P21860 20-1342); experiment: cell-based or functional assay
T4 sequence (P21860 20-1342): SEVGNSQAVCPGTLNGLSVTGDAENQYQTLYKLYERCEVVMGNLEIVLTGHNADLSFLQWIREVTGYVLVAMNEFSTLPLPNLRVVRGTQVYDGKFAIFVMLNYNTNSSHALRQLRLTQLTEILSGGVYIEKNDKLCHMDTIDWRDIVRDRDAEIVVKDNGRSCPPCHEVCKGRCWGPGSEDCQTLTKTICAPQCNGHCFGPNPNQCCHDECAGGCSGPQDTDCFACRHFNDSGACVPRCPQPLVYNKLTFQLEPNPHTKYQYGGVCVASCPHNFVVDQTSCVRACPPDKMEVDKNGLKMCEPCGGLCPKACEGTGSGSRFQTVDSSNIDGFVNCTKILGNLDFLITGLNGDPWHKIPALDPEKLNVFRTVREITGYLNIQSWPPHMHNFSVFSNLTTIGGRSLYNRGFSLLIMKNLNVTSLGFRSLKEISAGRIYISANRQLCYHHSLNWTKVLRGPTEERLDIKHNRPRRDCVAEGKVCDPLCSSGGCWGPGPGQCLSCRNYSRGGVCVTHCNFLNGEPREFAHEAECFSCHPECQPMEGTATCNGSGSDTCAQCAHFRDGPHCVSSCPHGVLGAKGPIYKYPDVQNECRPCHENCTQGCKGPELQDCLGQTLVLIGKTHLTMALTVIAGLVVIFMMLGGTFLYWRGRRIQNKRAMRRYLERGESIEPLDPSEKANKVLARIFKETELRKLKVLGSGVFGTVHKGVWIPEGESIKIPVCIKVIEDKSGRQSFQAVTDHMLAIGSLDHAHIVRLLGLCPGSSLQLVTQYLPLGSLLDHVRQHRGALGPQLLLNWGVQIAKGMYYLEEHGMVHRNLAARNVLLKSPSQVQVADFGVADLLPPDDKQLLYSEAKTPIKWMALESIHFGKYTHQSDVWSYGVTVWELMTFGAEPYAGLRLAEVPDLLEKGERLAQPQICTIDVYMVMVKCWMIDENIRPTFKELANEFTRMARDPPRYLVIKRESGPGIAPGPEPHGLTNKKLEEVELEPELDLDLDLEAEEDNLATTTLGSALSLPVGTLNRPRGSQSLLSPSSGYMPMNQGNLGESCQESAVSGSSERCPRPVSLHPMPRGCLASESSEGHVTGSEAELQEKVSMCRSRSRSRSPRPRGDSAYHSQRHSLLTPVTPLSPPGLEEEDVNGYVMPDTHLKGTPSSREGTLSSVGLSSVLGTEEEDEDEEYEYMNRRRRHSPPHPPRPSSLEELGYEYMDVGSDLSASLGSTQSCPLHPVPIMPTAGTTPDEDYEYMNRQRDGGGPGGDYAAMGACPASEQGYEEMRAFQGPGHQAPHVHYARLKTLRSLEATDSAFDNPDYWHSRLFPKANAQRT

[5] = target: T4, Human HER3, endogenous, on human cancer …; experiment: cell-based or functional assay; remark: listed apart in the source
[6] = target: T4, Human HER3, endogenous, on human cancer …; experiment: cell-based or functional assay; remark: listed apart in the source
[7] = target: T5, HER3 K267A: CD33-[Human HER3, residues 20-640, K267A]-TAG (human, UniProt P21860 20-640); experiment: SET, IgG vs mutant HER3
T5 construct: also called HER3 K267A-Tag; not shown: C-terminal TAG (e.g., FLAG TAG)
T5 sequence (P21860 20-640 K267A): as the sequence (P21860 20-640) above, with K248A counted along it

[8] = target: T3, Hu HER3: CD33-[Human HER3, residues …; experiment: SET, IgG vs soluble HER3-Tag
Procedure, shortened: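 Affinity measured by solution equilibrium titration, with read-out moved from classical ELISA to ECL-based detection for sensitivity. Titration data were fitted with customized fitting models.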

T2 sequence (P21860 20-640 K267A/L268A): as the sequence (P21860 20-640) above, with K248A, L249A counted along it
T1 sequence (P21860 20-640 L268A): as the sequence (P21860 20-640) above, with L249A counted along it

B1: MOR13768 (antibody, human IgG1, kappa, V domains shown)
VH: QVQLVQSGAEVKKPGESLKISCKGSGYSFTSSWVAWVRQMPGKGLEWMGIIYPGQSDTIYSPSFQGQVTISADKSISTAYLQWSSLKASDTAMYYCARVHIIQPPSAWSYNAMDVWGQGTLVTVSS
VL: DIQMTQSPSSLSASVGDRVTITCRASQSISTYLNWYQQKPGKAPKLLIFGASNLQSGVPSRFSGSGSGTDFTLTISSLQPEDFATYYCQQSITELFTFGQGTKVEIKR
notes: tested as IgG
binding result [1]: no binding | binding result [2]: no binding | Kd [3]: 0.037 nM | BT474 pHER3 % inhibition [4]: 70% | BT474 pHER3 IC50 [4]: 437 pM | MCF7 pHER3 % inhibition [4]: 75% | MCF7 pHER3 IC50 [4]: 412 pM | SK-Br-3 pHER3 % inhibition [4]: 81% | SK-Br-3 pHER3 IC50 [4]: 139 pM | BT-474 pAkt (S473) % inhibition [5]: 81% | BT-474 pAkt (S473) IC50 [5]: 466 pM | MCF7 pAkt (S473) % inhibition [5]: 73% | MCF7 pAkt (S473) IC50 [5]: 347 pM | SK-Br-3 pAkt (S473) % inhibition [5]: 94% | SK-Br-3 pAkt (S473) IC50 [5]: 105 pM | BT-474 proliferation % inhibition [6]: 43% | BT-474 proliferation IC50 [6]: 1.21 nM | MCF7 proliferation % inhibition [6]: 58% | SK-Br-3 proliferation % inhibition [6]: 43% | SK-Br-3 proliferation IC50 [6]: 0.198 nM | Kd [7]: 0.099 nM | Kd [8]: 0.037 nM

Source: US20130273029A1 (Novartis, published 2013)
